The source of these data is patent US20250115656A1 (Stanford University, published 2025).

This series deals with the molecule itself. Kind of series: cryo-EM in detergent; HS-AFM in lipid bilayer. How it is done: Briefly, for reconstituted lipids, we used a mixture of phospholipids, asolectin from soybean (Sigma-Aldrich, No. 11145). Asolectin (120 μg) was dissolved in chloroform and then evaporated under N2 gas to completely remove the solvent. Then, the lipids were suspended in 50 μL buffer A (20 mM HEPES-KOH pH 7.4, 100 mM NaCl, and 4% DDM) and sonicated for ˜1 min with a tip-sonicator. Next, dissolved membrane proteins (1 nmol) and MSP (50 μL, 1 mg/mL) (MSP1E3D1, Sigma-Aldrich, No. M7074) were added to the lipid suspension and mixed for ˜1 h while rotating in the dark at 4° C. Finally, we added 60 mg Bio-beads SM-2 (Bio-Rad, Hercules, CA, USA, No. 1523920) and dialyzed the samples in detergent overnight at 4° C. According to the manufacturer's protocol, nanodisc samples should be fractionated on a column to purify the nanodiscs based on size (˜10 nm in diameter).
A homemade HS-AFM operated in tapping mode was used (Shibata et al., 2017, 2018). An optical beam deflection detector detected the cantilever (Olympus, Tokyo, Japan: BL-AC10DS-A2) deflection using an infrared (IR) laser at 780 nm and 0.7 mW. The IR beam was focused onto the back side of the cantilever covered with a gold film through a ×60 objective lens (Nikon, Tokyo, Japan: CFI S Plan Fluor ELWD 60×). The reflected IR beam was detected by a two-segmented PIN photodiode. […]

B1: Wild-type ChRmine (M1-R304) (other)
chain: MAHAPGTDQMFYVGTMDGWYLDTKLNSVAIGAHWSCFIVLTITTFYLGYESWTSRGPSKRTSFYAGYQEEQNLALFVNFFAMLSYFGKIVADTLGHNFGDVGPFIIGFGNYRYADYMLTCPMLVYDLLYQLRAPYRVSCSAIIFAILMSGVLAEFYAEGDPRLRNGAYAWYGFGCFWFIFAYSIVMSIVAKQYSRLAQLAQDTGAEHSLHVLKFAVFTFSMLWILFPLVWAICPRGFGWIDDNWTEVAHCVCDIVAKSCYGFALARFRKTYDEELFRLLEQLGHDEDEFQKLELDMRLSSNGER
modifications: all-trans retinal covalently linked at K257 (Schiff base)
notes: Pump-like cation-conducting channelrhodopsin, purified from Sf9 cells in GDN/CHS detergent; It forms a homotrimer; The model covers residues 10-279; also called WT ChRmine; ChRmine WT
As for B1, the binding result is recorded as “binds”.
